Data on one molecule can be found in patent publication US20230391867A1 (SHENZHEN ENDURING BIOTECH, published 2023).

The EC50 is the concentration at which the effect is half-maximal. Read a low EC50 as an effect from little substance.

Assay [1] concerns the target T1, CD47 on human cells (red blood cells from healthy human donors; BxPC3; ZR-75-1) (human, UniProt Q08722 19-323). Kind of assay: cell-based or functional assay.
Assay [2] addresses T2, Human CD47 Protein, Fc Tag (HPLC verified; Acro, cat:CD7-H5256-100ug) (human, UniProt Q08722 19-139).
T2 construct: Bought Fc-tagged CD47 coated on the ELISA plate; not shown: Fc tag
The experiment in a line: ELISA, plate coated with human CD47 Fc Tag protein, anti-SCACD3 detection. Background: ELISA stands for enzyme-linked immunosorbent assay.

In assay [3] the target is T1, CD47 on human cells (red blood cells …). Kind of assay: flow cytometry, JY102-Alexa Fluor 488 at 10 ug/ml, % stained BxPC3 cells against % stained RBCs. The method, then:
Again, RBC cells from healthy human donors or cultured BxPC3 cells were collected and resuspended to a concentration of approximately 5×10⁶ cells/ml in ice cold PBS, 3% BSA. 100 μl of cell suspension was used for each binding reaction and incubated with indicated doses of JY102-Alexa Fluor 488 for at least 30 min at room temperature (or 4° C. for the assay in panel C) in the dark. Then cells were washed 3 times by centrifugation at 400 g for 5 min and resuspended in ice cold PBS, 3% BSA. Each sample was subjected to flow cytometry analysis.
(In general: Flow cytometry measures light scatter and fluorescence of single cells or particles in a stream.)

T1 sequence (Q08722 19-323): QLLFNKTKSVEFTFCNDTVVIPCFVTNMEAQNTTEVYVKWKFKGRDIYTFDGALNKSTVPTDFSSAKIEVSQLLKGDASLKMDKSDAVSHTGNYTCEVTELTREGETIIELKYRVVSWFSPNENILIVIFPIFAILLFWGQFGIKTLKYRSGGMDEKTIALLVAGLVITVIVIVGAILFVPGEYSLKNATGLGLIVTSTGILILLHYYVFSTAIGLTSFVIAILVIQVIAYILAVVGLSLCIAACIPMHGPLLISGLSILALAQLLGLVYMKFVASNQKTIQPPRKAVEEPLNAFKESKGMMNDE
T2 sequence (Q08722 19-139 limits assumed): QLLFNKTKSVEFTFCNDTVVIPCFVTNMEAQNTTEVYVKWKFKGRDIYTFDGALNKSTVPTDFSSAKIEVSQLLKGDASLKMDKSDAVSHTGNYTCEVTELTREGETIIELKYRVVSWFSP

B1: JY102 (30kmPEG-(SCACD3)SCACD47) (bispecific antibody)
scFv 1: not shown
scFv 2: DIVMTQSPLSLPVTPGEPASISCRSSQSIVYSNGNTYLGWYLQKPGQSPQLLIYKVSNRFSGVPDRFSGSGSGTDFTLKISRVEAEDVGVYYCFQGSHVPYTFGQGTKLEIKGGCSGGSGGSGGSGGQVQLVQSGAEVKKPGASVKVSCKASGYTFTNYNMHWVRQAPGQRLEWMGTIYPGNDDTSYNQKFKDRVTITADTSASTAYMELSSLRSEDTAVYYCARGGYRAMDYWGQGTLVTVSS
modifications: free thiol (Cys) in the VL-VH linker is conjugated to Azide-PEG10-Maleimide; the azide is clicked to the DBCO of 30kmPEG-Lys(SCACD3)-DBCO; free thiol (Cys) genetically inserted in the VH-VL linker is conjugated to the maleimide of 30kmPEG-Lys(maleimide)-DBCO
notes: also called Compound 12; compound 12
With B1, the “EC50 of T cell mediated cytotoxicity (MTS assay, expanded T cells, E:T 5:1, 24 h) to ZR75-1” value in assay [1] was 0.111 µg/mL. The same molecule showed an EC50 in assay [2] of 0.187 µg/mL. Also, the “fold difference in binding (BxPC3 cells against RBCs)” value in assay [3] is 40 fold.
